The record followed here is paper PMC8260793, “A split protease-E. coli ClpXP system quantifies protein–protein interactions in Escherichia coli cells” (Communications Biology, 2021).

In test [1] the target is Csy1 of Z. mobilis Type I-F CRISPR/Cas complex (Zymomonas mobilis). As to the kind of experiment: split reporter (BiFC, NanoBiT); SPEC profiling of CRISPR/Cas effectors and Cas3 / Cas2-3 mutants in E. coli cells; sfGFP fluorescence by flow cytometry; interaction intensity normalized to cells expressing wt HRV 3 C protease. In general terms: In flow cytometry, cells or beads pass a laser one at a time.

The target of test [2] is Csy2 of Z. mobilis Type I-F CRISPR/Cas complex (Zymomonas mobilis). The test is described as above.
The target in test [3] is Csy4 of Z. mobilis Type I-F CRISPR/Cas complex (Zymomonas mobilis). The description is as above.
The target of test [4] is Csy4 of Z. mobilis Type I-F CRISPR/Cas complex. Briefly: SPEC system (split protease-E. coli ClpXP) in E. coli cells. Particulars: parent: 100; read off a plot.
Test [5] deals with Csy3 of Z. mobilis Type I-F CRISPR/Cas complex. The test is described as above. The settings on record: parent: 100; read off a plot.
Test [6] deals with Csy2 of Z. mobilis Type I-F CRISPR/Cas complex. Described as above. The settings on record: parent: 100; read off a plot.
Test [7] has as its target Cas1 of Z. mobilis Type I-F CRISPR/Cas complex. Described as above. Particulars: parent: 100; read off a plot.
Test [8] has as its target Cas1 of Z. mobilis Type I-F CRISPR/Cas complex (Zymomonas mobilis). Briefly: split reporter (BiFC, NanoBiT); SPEC profiling of CRISPR/Cas effectors and Cas3 / Cas2-3 mutants in E. coli cells; sfGFP fluorescence by flow cytometry; interaction intensity normalized to cells expressing wt HRV 3 C protease.
The target in test [9] is Csy3 of Z. mobilis Type I-F CRISPR/Cas complex (Zymomonas mobilis). Described as above.
Test [10] addresses T1, Cas5 of E. coli K12 Type I-E CRISPR/Cas complex (E. coli K12, UniProt Q46898 1-224).
T1 construct: Cas5, effector of the type I-E CRISPR/Cas complex of E. coli K12; source: E. coli BL21(DE3) or BL21(DE3)-SPEC, expressed in the cells (IPTG induction)
T1 sequence (looked up): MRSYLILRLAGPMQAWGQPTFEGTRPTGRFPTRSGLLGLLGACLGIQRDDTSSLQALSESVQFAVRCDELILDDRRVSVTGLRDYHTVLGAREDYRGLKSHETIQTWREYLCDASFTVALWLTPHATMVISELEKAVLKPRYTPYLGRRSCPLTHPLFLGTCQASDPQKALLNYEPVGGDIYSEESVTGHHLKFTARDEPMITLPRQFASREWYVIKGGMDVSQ
The description is as above. Particulars: partners not purified.

Test [11] addresses T2, Cas11 of E. coli K12 Type I-E CRISPR/Cas complex (E. coli K12, UniProt P76632 1-160).
T2 construct: Cas11, effector of the type I-E CRISPR/Cas complex of E. coli K12; source: E. coli BL21(DE3) or BL21(DE3)-SPEC, expressed in the cells (IPTG induction)
T2 sequence (looked up): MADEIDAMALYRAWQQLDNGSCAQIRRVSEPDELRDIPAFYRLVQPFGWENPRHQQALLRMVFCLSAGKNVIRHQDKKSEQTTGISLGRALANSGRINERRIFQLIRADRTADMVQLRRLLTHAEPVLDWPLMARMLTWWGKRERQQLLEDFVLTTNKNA
The description is as above. The settings on record: partners not purified.

The target of test [12] is T3, Cas2 of E. coli K12 Type I-E CRISPR/Cas complex (E. coli K12, UniProt P45956 1-94).
T3 construct: Cas2, effector of the type I-E CRISPR/Cas complex of E. coli K12; source: E. coli BL21(DE3) or BL21(DE3)-SPEC, expressed in the cells (IPTG induction)
T3 sequence (looked up): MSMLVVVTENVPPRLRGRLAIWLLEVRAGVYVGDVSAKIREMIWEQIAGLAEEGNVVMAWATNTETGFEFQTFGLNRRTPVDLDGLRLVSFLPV
The description is as above. The settings on record: partners not purified.

The target of test [13] is T4, Cas7 of E. coli K12 Type I-E CRISPR/Cas complex (E. coli K12, UniProt Q46899 1-363).
T4 construct: Cas7, effector of the type I-E CRISPR/Cas complex of E. coli K12; source: E. coli BL21(DE3) or BL21(DE3)-SPEC, expressed in the cells (IPTG induction)
T4 sequence (looked up): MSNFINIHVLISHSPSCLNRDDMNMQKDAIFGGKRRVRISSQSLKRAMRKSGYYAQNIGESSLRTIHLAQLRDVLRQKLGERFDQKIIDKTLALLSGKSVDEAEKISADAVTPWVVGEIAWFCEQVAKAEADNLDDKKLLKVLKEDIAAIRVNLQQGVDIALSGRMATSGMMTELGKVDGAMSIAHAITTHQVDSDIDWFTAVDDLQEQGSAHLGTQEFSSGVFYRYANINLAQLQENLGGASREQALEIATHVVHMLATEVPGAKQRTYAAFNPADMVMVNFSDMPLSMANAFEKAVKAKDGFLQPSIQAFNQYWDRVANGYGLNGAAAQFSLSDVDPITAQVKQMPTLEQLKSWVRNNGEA
The description is as above. Particulars: partners not purified.

For “Cas2-3 D608N (Z. mobilis Type I-F) (natural protein)”, the increase of the interaction over Cas2-3 wild type in test [1] is > 40%.

For “Cas2-3 K127A (Z. mobilis Type I-F) (natural protein)”, the normalized interaction intensity in test [1] was 10%; in test [2], 21%.

On to “Cas2-3 H123A (Z. mobilis Type I-F) (natural protein)”, for which the increase of the interaction over Cas2-3 wild type in test [1] was > 40%.

Turning to “Csy1 of Z. mobilis Type I-F CRISPR/Cas complex (natural protein)”, the normalized interaction intensity in test [2] and in test [3] was > 80% each time.

“Cas2-3 of Z. mobilis Type I-F CRISPR/Cas complex D608N”: the percent of parent was 110% in [4], 110% in [5] and 78% in test [6].

Consider “Cas2-3 of Z. mobilis Type I-F CRISPR/Cas complex K127A”, for which the percent of parent in test [4] and in [5] was 110% throughout.

For “Cas2-3 S639A/T641A (Z. mobilis Type I-F) (natural protein)”, the increase of the interaction over Cas2-3 wild type in [1] is > 40%.

Consider “Cas2-3 of Z. mobilis Type I-F CRISPR/Cas complex K458N”, for which the percent of parent came out at 110% in [4], 120% in [5], 110% in test [6] and 97% in [7].

“Cas2-3 of Z. mobilis Type I-F CRISPR/Cas complex (natural protein)”: the normalized interaction intensity in test [8] was 99%; in [1], 63%; in [2], 88%; in [3], > 80%; in test [9], > 80%.

Regarding “Cas2-3 of Z. mobilis Type I-F CRISPR/Cas complex D124A”, the percent of parent in test [4] came out at 110%; in [5], 110%; in [7], 95%.

Consider “Cas2-3 D124A (Z. mobilis Type I-F) (natural protein)”, for which the increase of the interaction over Cas2-3 wild type in [1] is > 40%.

In the case of “Cas2-3 of Z. mobilis Type I-F CRISPR/Cas complex S639A; T641A”, the percent of parent in test [4], in test [5] and in test [6] was 110% each time.

Consider “Cas2-3 K458N (Z. mobilis Type I-F) (natural protein)”, for which, in [1], the increase of the interaction over Cas2-3 wild type is > 40%.

For the molecule “Cas1 of Z. mobilis Type I-F CRISPR/Cas complex (natural protein)”, the values for the normalized interaction intensity in test [2], in [3] and in test [9] were > 80%, > 80% and 14%, respectively.

Consider “Cas2-3 of Z. mobilis Type I-F CRISPR/Cas complex H123A”, for which the percent of parent in test [4] and in test [5] was 110% in each case.

B1: Cas1 of E. coli K12 Type I-E CRISPR/Cas complex (natural protein, UniProt Q46896 1-305, looked up)
chain: MTWLPLNPIPLKDRVSMIFLQYGQIDVIDGAFVLIDKTGIRTHIPVGSVACIMLEPGTRVSHAAVRLAAQVGTLLVWVGEAGVRVYASGQPGGARSDKLLYQAKLALDEDLRLKVVRKMFELRFGEPAPARRSVEQLRGIEGSRVRATYALLAKQYGVTWNGRRYDPKDWEKGDTINQCISAATSCLYGVTEAAILAAGYAPAIGFVHTGKPLSFVYDIADIIKFDTVVPKAFEIARRNPGEPDREVRLACRDIFRSSKTLAKLIPLIEDVLAAGEIQPPAPPEDAQPVAIPLPVSLGDAGHRSS
notes: Cas1, effector of the type I-E CRISPR/Cas complex of E. coli K12; source: E. coli BL21(DE3) or BL21(DE3)-SPEC, expressed in the cells (IPTG induction)
Consider B1, for which the normalized interaction intensity in test [10] is > 80%; in test [11] it was > 80%; in [12], 92%.

B2: Cas6 of E. coli K12 Type I-E CRISPR/Cas complex (natural protein, UniProt Q46897 1-199, looked up)
chain: MYLSKVIIARAWSRDLYQLHQGLWHLFPNRPDAARDFLFHVEKRNTPEGCHVLLQSAQMPVSTAVATVIKTKQVEFQLQVGVPLYFRLRANPIKTILDNQKRLDSKGNIKRCRVPLIKEAEQIAWLQRKLGNAARVEDVHPISERPQYFSGDGKSGKIQTVCFEGVLTINDAPALIDLVQQGIGPAKSMGCGLLSLAPL
notes: Cas6, effector of the type I-E CRISPR/Cas complex of E. coli K12; source: E. coli BL21(DE3) or BL21(DE3)-SPEC, expressed in the cells (IPTG induction)
Regarding B2, in test [13], the normalized interaction intensity is > 80%.

B3: Cas3 of E. coli K12 Type I-E CRISPR/Cas complex (natural protein, UniProt P38036 1-888, looked up)
chain: MEPFKYICHYWGKSSKSLTKGNDIHLLIYHCLDVAAVADCWWDQSVVLQNTFCRNEMLSKQRVKAWLLFFIALHDIGKFDIRFQYKSAESWLKLNPATPSLNGPSTQMCRKFNHGAAGLYWFNQDSLSEQSLGDFFSFFDAAPHPYESWFPWVEAVTGHHGFILHSQDQDKSRWEMPASLASYAAQDKQAREEWISVLEALFLTPAGLSINDIPPDCSSLLAGFCSLADWLGSWTTTNTFLFNEDAPSDINALRTYFQDRQQDASRVLELSGLVSNKRCYEGVHALLDNGYQPRQLQVLVDALPVAPGLTVIEAPTGSGKTETALAYAWKLIDQQIADSVIFALPTQATANAMLTRMEASASHLFSSPNLILAHGNSRFNHLFQSIKSRAITEQGQEEAWVQCCQWLSQSNKKVFLGQIGVCTIDQVLISVLPVKHRFIRGLGIGRSVLIVDEVHAYDTYMNGLLEAVLKAQADVGGSVILLSATLPMKQKQKLLDTYGLHTDPVENNSAYPLINWRGVNGAQRFDLLAHPEQLPPRFSIQPEPICLADMLPDLTMLERMIAAANAGAQVCLICNLVDVAQVCYQRLKELNNTQVDIDLFHARFTLNDRREKENRVISNFGKNGKRNVGRILVATQVVEQSLDVDFDWLITQHCPADLLFQRLGRLHRHHRKYRPAGFEIPVATILLPDGEGYGRHEHIYSNVRVMWRTQQHIEELNGASLFFPDAYRQWLDSIYDDAEMDEPEWVGNGMDKFESAECEKRFKARKVLQWAEEYSLQDNDETILAVTRDGEMSLPLLPYVQTSSGKQLLDGQVYEDLSHEQQYEALALNRVNVPFTWKRSFSEVVDEDGLLWLEGKQNLDGWVWQGNSIVITYTGDEGMTRVIPANPK
notes: Cas3, effector of the type I-E CRISPR/Cas complex of E. coli K12; source: E. coli BL21(DE3) or BL21(DE3)-SPEC, expressed in the cells (IPTG induction)
Turning to B3, the normalized interaction intensity is > 80% in test [10] and 56% in [12].
